# T1: human FcγRIIa(H) (human, UniProt P12318 36-217)
# T1 construct: also called FcgRIIaH; FcγRIIa type H
# T1 sequence: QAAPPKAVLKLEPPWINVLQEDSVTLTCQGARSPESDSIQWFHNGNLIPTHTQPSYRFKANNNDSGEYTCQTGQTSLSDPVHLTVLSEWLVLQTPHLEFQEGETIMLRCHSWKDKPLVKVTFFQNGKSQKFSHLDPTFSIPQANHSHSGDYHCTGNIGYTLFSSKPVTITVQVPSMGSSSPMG
# T2: human FcγRIIa(R) (human, UniProt P12318 36-217)
# T2 construct: also called FcgRIIaR; FcγRIIa type R
# T2 chain: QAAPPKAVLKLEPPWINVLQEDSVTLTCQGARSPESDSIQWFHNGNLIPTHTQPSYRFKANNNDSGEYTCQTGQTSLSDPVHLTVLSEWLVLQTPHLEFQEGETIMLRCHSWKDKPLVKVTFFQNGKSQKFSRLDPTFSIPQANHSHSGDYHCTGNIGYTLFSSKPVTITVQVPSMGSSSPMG
# T3: human FcγRIIb (human, UniProt P31994 43-217, limits assumed)
# T3 construct: also called FcgRIIb
# T3 sequence: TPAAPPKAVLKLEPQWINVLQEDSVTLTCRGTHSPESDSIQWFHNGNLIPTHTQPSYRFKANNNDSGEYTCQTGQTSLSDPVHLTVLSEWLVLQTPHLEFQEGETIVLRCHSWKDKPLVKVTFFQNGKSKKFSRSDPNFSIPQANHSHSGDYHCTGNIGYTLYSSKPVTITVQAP
# Legend:
# Assay in all cases: SPR (Biacore);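 further: antibody variants captured on sensor chip, Fcγ receptor flowed over at 25 °C, bound receptor normalized to amount of captured antibody, expressed relative to reference antibody set as 100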
# [1] = molecular target: T1, human FcγRIIa(H)
# [2] = molecular target: T4, human FcγRIIIa(F) (human, UniProt P08637 17-208, limits assumed)
# T4 construct: also called FcgRIIIaF; allotype F158
# [3] = molecular target: T5, human FcγRIa (human, UniProt P12314 16-292, limits assumed)
# T5 construct: also called FcgRIa; FcγRI (CD64)
# [4] = molecular target: T2, human FcγRIIa(R)
# [5] = molecular target: T3, human FcγRIIb
# T4 sequence (P08637 other isoform, or with tags, fused parts or gaps limits assumed): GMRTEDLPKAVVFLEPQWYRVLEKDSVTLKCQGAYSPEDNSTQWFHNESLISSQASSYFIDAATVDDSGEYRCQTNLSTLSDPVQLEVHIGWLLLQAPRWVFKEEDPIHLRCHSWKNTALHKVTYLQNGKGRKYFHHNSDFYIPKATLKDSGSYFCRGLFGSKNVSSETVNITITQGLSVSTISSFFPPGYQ
# T5 sequence (P12314 16-292 limits assumed): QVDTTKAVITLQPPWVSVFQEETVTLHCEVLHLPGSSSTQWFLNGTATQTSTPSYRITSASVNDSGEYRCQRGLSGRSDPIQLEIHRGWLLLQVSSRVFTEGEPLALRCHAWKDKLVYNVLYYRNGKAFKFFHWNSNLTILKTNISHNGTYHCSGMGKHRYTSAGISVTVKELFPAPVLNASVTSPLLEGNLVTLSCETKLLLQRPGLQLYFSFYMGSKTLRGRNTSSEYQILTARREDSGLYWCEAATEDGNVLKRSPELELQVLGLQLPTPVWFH
relative binding activity [1],relative binding activity [2],relative binding activity [3],relative binding activity [4],relative binding activity [5],Binder
18 % of GpH7-B3/GpL16-k0,0 % of GpH7-B3/GpL16-k0,59 % of GpH7-B3/GpL16-k0,26 % of GpH7-B3/GpL16-k0,11 % of GpH7-B3/GpL16-k0,"GpH7-B3 variant D265H/GpL16-k0 (antibody, human IgG1, copies: 2 + 2) heavy: not shown light: DIVMTQSPLSLPVTPGEPASISCQASESLVHSNRNTYLHWYLQKPGQSPQLLIYKVSNRFSGVPDRFSGSGSGTDFTLKISRVEAEDVGVYYCSQNTHVPPTFGQGTKVEIE"
30 % of GpH7-B3/GpL16-k0,,96 % of GpH7-B3/GpL16-k0,21 % of GpH7-B3/GpL16-k0,13 % of GpH7-B3/GpL16-k0,"GpH7-B3 variant E269W/GpL16-k0 (antibody, human IgG1, copies: 2 + 2) heavy: not shown light: DIVMTQSPLSLPVTPGEPASISCQASESLVHSNRNTYLHWYLQKPGQSPQLLIYKVSNRFSGVPDRFSGSGSGTDFTLKISRVEAEDVGVYYCSQNTHVPPTFGQGTKVEIE"
18 % of GpH7-B3/GpL16-k0,1 % of GpH7-B3/GpL16-k0,13 % of GpH7-B3/GpL16-k0,,19 % of GpH7-B3/GpL16-k0,"GpH7-B3 variant G236K/GpL16-k0 (antibody, human IgG1, copies: 2 + 2) heavy: not shown light: DIVMTQSPLSLPVTPGEPASISCQASESLVHSNRNTYLHWYLQKPGQSPQLLIYKVSNRFSGVPDRFSGSGSGTDFTLKISRVEAEDVGVYYCSQNTHVPPTFGQGTKVEIE"
1 % of GpH7-B3/GpL16-k0,-1 % of GpH7-B3/GpL16-k0,11 % of GpH7-B3/GpL16-k0,1 % of GpH7-B3/GpL16-k0,-1 % of GpH7-B3/GpL16-k0,"GpH7-B3 variant D265G/GpL16-k0 (antibody, human IgG1, copies: 2 + 2) heavy: not shown light: DIVMTQSPLSLPVTPGEPASISCQASESLVHSNRNTYLHWYLQKPGQSPQLLIYKVSNRFSGVPDRFSGSGSGTDFTLKISRVEAEDVGVYYCSQNTHVPPTFGQGTKVEIE"
,2 % of GpH7-B3/GpL16-k0,80 % of GpH7-B3/GpL16-k0,,88 % of GpH7-B3/GpL16-k0,"GpH7-B3 variant V266F/GpL16-k0 (antibody, human IgG1, copies: 2 + 2) heavy: not shown light: DIVMTQSPLSLPVTPGEPASISCQASESLVHSNRNTYLHWYLQKPGQSPQLLIYKVSNRFSGVPDRFSGSGSGTDFTLKISRVEAEDVGVYYCSQNTHVPPTFGQGTKVEIE"
24 % of GpH7-B3/GpL16-k0,12 % of GpH7-B3/GpL16-k0,95 % of GpH7-B3/GpL16-k0,12 % of GpH7-B3/GpL16-k0,,"GpH7-B3 variant E269H/GpL16-k0 (antibody, human IgG1, copies: 2 + 2) heavy: not shown light: DIVMTQSPLSLPVTPGEPASISCQASESLVHSNRNTYLHWYLQKPGQSPQLLIYKVSNRFSGVPDRFSGSGSGTDFTLKISRVEAEDVGVYYCSQNTHVPPTFGQGTKVEIE"
32 % of GpH7-B3/GpL16-k0,10 % of GpH7-B3/GpL16-k0,94 % of GpH7-B3/GpL16-k0,16 % of GpH7-B3/GpL16-k0,,"GpH7-B3 variant E269I/GpL16-k0 (antibody, human IgG1, copies: 2 + 2) heavy: not shown light: DIVMTQSPLSLPVTPGEPASISCQASESLVHSNRNTYLHWYLQKPGQSPQLLIYKVSNRFSGVPDRFSGSGSGTDFTLKISRVEAEDVGVYYCSQNTHVPPTFGQGTKVEIE"
2 % of GpH7-B3/GpL16-k0,1 % of GpH7-B3/GpL16-k0,95 % of GpH7-B3/GpL16-k0,21 % of GpH7-B3/GpL16-k0,,"GpH7-B3 variant P238E/GpL16-k0 (antibody, human IgG1, copies: 2 + 2) heavy: not shown light: DIVMTQSPLSLPVTPGEPASISCQASESLVHSNRNTYLHWYLQKPGQSPQLLIYKVSNRFSGVPDRFSGSGSGTDFTLKISRVEAEDVGVYYCSQNTHVPPTFGQGTKVEIE"
,4 % of GpH7-B3/GpL16-k0,45 % of GpH7-B3/GpL16-k0,85 % of GpH7-B3/GpL16-k0,49 % of GpH7-B3/GpL16-k0,"GpH7-B3 variant G237A/GpL16-k0 (antibody, human IgG1, copies: 2 + 2) heavy: not shown light: DIVMTQSPLSLPVTPGEPASISCQASESLVHSNRNTYLHWYLQKPGQSPQLLIYKVSNRFSGVPDRFSGSGSGTDFTLKISRVEAEDVGVYYCSQNTHVPPTFGQGTKVEIE"
0 % of GpH7-B3/GpL16-k0,0 % of GpH7-B3/GpL16-k0,3 % of GpH7-B3/GpL16-k0,,5 % of GpH7-B3/GpL16-k0,"GpH7-B3 variant G237P/GpL16-k0 (antibody, human IgG1, copies: 2 + 2) heavy: not shown light: DIVMTQSPLSLPVTPGEPASISCQASESLVHSNRNTYLHWYLQKPGQSPQLLIYKVSNRFSGVPDRFSGSGSGTDFTLKISRVEAEDVGVYYCSQNTHVPPTFGQGTKVEIE"
